# From the supplement of paper PMC7877785
# ± gives the uncertainty stated by the source.
# Assay: self-splicing fitness, log relative to wild type (ln ratio); higher = more splicing; Tetrahymena group I intron in knt gene, E. coli kanamycin selection, DiMSum; sequences stand for … in CUCUCU…GGAGGGAAAAGUUAUCAGGCAUGCACCUGGUAGCUAGUCUUUAAACCAAUAGAUUGCAUCGGUUUAAAAGGCAAGACCGUCAAAUUGCGGGAAAGGGGUCAACAGCCGUUCAGUACCAAGUCUCAGGGGAAACUUUGAGAUGGCCUUGCAAAGGGUAUGGUAAUAAGCUGACGGACAUGGUCCUAACCACGCAGCCAAGUCCUAAGUCAACAGAUCUUCUGUUGAUAUGGAUGCAGUUCACAGACUAAAUGUCGGUCGGGGAAGAUGUAUUCUUCUCAUAAGAUAUAGUCGGACCUCUCCUUAAUGGGAGCUAGCGGAUGAAGUGAUGCAACACUGGAGCCGCUGGGAACUAAUUUGUAUGCGAAAGUAUAUUGAUUAGUUUUGGAGUACUCGUGGUCG
# In short: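 Six replicate transformations of E. coli BL21(DE3) with a pET-22b(+) library were grown overnight at 37°C or 30°C. The library randomised all eight P1ex-region intron nucleotides, the intron lying in the knt kanamycin-resistance gene, and plates were LB agar with or without 25 μg/mL kanamycin plus 100 μg/mL carbenicillin, 50 μM IPTG and 0.2% rhamnose. Pooled colonies were amplicon-sequenced on an Illumina HiSeq 2500, and fitness is the DiMSum error-weighted combination of wild-type-normalised replicate fold changes, kanamycin versus none.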
sequence,measurement,setting,value
CCCCAGCAAUAUUACGGCUA,self-splicing fitness (ln),30 °C,-3.77 ± 0.16
same,self-splicing fitness (ln),37 °C,-2.34 ± 0.13
GCUAAGCAAUAUUACGGCUU,self-splicing fitness (ln),30 °C,-0.732 ± 0.1
same,self-splicing fitness (ln),37 °C,-0.973 ± 0.16
GCCCAGCAAUAUUACGCCCU,self-splicing fitness (ln),30 °C,-0.933 ± 0.12
same,self-splicing fitness (ln),37 °C,-0.685 ± 0.16
GACUAGCAAUAUUACGUGGU,self-splicing fitness (ln),30 °C,-3.39 ± 0.13
same,self-splicing fitness (ln),37 °C,-2.73 ± 0.15
GCUCAGCAAUAUUACGGCAA,self-splicing fitness (ln),30 °C,-1.98 ± 0.16
same,self-splicing fitness (ln),37 °C,-1.1 ± 0.17
GAAUAGCAAUAUUACGCUAA,self-splicing fitness (ln),30 °C,-2.59 ± 0.25
same,self-splicing fitness (ln),37 °C,-1.05 ± 0.25
AAUCAGCAAUAUUACGGUGC,self-splicing fitness (ln),30 °C,-0.892 ± 0.072
same,self-splicing fitness (ln),37 °C,-0.189 ± 0.082
CGCGAGCAAUAUUACGCCAG,self-splicing fitness (ln),30 °C,-2.74 ± 0.18
same,self-splicing fitness (ln),37 °C,-2.75 ± 0.24
CUUAAGCAAUAUUACGGCAU,self-splicing fitness (ln),30 °C,-3.68 ± 0.23
same,self-splicing fitness (ln),37 °C,-3.67 ± 0.34
AGUAAGCAAUAUUACGAUCU,self-splicing fitness (ln),30 °C,0.14 ± 0.15
same,self-splicing fitness (ln),37 °C,-0.333 ± 0.14
UAACAGCAAUAUUACGCGAG,self-splicing fitness (ln),30 °C,-0.783 ± 0.052
same,self-splicing fitness (ln),37 °C,-0.508 ± 0.066
CCCAAGCAAUAUUACGUCAG,self-splicing fitness (ln),30 °C,-4.12 ± 0.17
same,self-splicing fitness (ln),37 °C,-1.97 ± 0.13
AAAAAGCAAUAUUACGGCGC,self-splicing fitness (ln),30 °C,-0.402 ± 0.093
same,self-splicing fitness (ln),37 °C,0.559 ± 0.13
CAGUAGCAAUAUUACGGUAU,self-splicing fitness (ln),30 °C,-3.79 ± 0.27
same,self-splicing fitness (ln),37 °C,-3.02 ± 0.28
CGGUAGCAAUAUUACGCGUG,self-splicing fitness (ln),30 °C,-2.11 ± 0.15
same,self-splicing fitness (ln),37 °C,-1.82 ± 0.14
GAAGAGCAAUAUUACGAAGC,self-splicing fitness (ln),30 °C,-3.81 ± 0.46
same,self-splicing fitness (ln),37 °C,-0.865 ± 0.3
ACGCAGCAAUAUUACGACAC,self-splicing fitness (ln),30 °C,-1.83 ± 0.13
same,self-splicing fitness (ln),37 °C,-0.767 ± 0.16
GCCUAGCAAUAUUACGGGUG,self-splicing fitness (ln),30 °C,-1.02 ± 0.056
same,self-splicing fitness (ln),37 °C,-0.101 ± 0.067
UUGUAGCAAUAUUACGGUGA,self-splicing fitness (ln),30 °C,-1.11 ± 0.093
same,self-splicing fitness (ln),37 °C,-0.318 ± 0.097
ACACAGCAAUAUUACGUCUG,self-splicing fitness (ln),30 °C,-1.65 ± 0.055
same,self-splicing fitness (ln),37 °C,-0.547 ± 0.061
UCAUAGCAAUAUUACGAGAG,self-splicing fitness (ln),30 °C,-2.96 ± 0.24
same,self-splicing fitness (ln),37 °C,-2.44 ± 0.22
GAGAAGCAAUAUUACGUGUA,self-splicing fitness (ln),30 °C,-2.8 ± 0.15
same,self-splicing fitness (ln),37 °C,-1.41 ± 0.13
GAGUAGCAAUAUUACGCCAU,self-splicing fitness (ln),30 °C,-2.49 ± 0.19
same,self-splicing fitness (ln),37 °C,-2.33 ± 0.31
GGCUAGCAAUAUUACGGACA,self-splicing fitness (ln),30 °C,-0.485 ± 0.091
same,self-splicing fitness (ln),37 °C,-0.398 ± 0.098
AUCUAGCAAUAUUACGAUUU,self-splicing fitness (ln),30 °C,-0.629 ± 0.084
same,self-splicing fitness (ln),37 °C,0.317 ± 0.11
AGAUAGCAAUAUUACGCGUC,self-splicing fitness (ln),30 °C,-2.53 ± 0.2
same,self-splicing fitness (ln),37 °C,-0.587 ± 0.47
UUUAAGCAAUAUUACGAAAA,self-splicing fitness (ln),30 °C,-0.789 ± 0.19
same,self-splicing fitness (ln),37 °C,-1.33 ± 0.2
AAGAAGCAAUAUUACGGGCG,self-splicing fitness (ln),30 °C,-1.48 ± 0.081
same,self-splicing fitness (ln),37 °C,-0.421 ± 0.11
GAGGAGCAAUAUUACGGCGA,self-splicing fitness (ln),30 °C,-1.1 ± 0.23
same,self-splicing fitness (ln),37 °C,-0.687 ± 0.2
UAGGAGCAAUAUUACGCCUA,self-splicing fitness (ln),30 °C,-3.16 ± 0.34
same,self-splicing fitness (ln),37 °C,-3.02 ± 0.35
AAGCAGCAAUAUUACGAGCA,self-splicing fitness (ln),30 °C,-0.694 ± 0.073
same,self-splicing fitness (ln),37 °C,-0.435 ± 0.086
UAUGAGCAAUAUUACGAGCA,self-splicing fitness (ln),30 °C,-2.47 ± 0.17
same,self-splicing fitness (ln),37 °C,-2.09 ± 0.31
AAGGAGCAAUAUUACGAUGA,self-splicing fitness (ln),30 °C,-3.04 ± 0.24
same,self-splicing fitness (ln),37 °C,-2.02 ± 0.2
UAGCAGCAAUAUUACGGUCA,self-splicing fitness (ln),30 °C,-0.671 ± 0.07
same,self-splicing fitness (ln),37 °C,0.278 ± 0.085
GCGCAGCAAUAUUACGACAU,self-splicing fitness (ln),30 °C,-0.277 ± 0.012
same,self-splicing fitness (ln),37 °C,0.253 ± 0.032
ACAGAGCAAUAUUACGAUUG,self-splicing fitness (ln),30 °C,-2.95 ± 0.26
same,self-splicing fitness (ln),37 °C,-3.3 ± 0.3
AGAGAGCAAUAUUACGUGCU,self-splicing fitness (ln),37 °C,-1.44 ± 0.28
AGGGAGCAAUAUUACGCUCG,self-splicing fitness (ln),30 °C,-2.31 ± 0.27
same,self-splicing fitness (ln),37 °C,-2.12 ± 0.3
UAAAAGCAAUAUUACGUGAU,self-splicing fitness (ln),30 °C,-2.46 ± 0.11
same,self-splicing fitness (ln),37 °C,-2.04 ± 0.16
UAAAAGCAAUAUUACGAGCG,self-splicing fitness (ln),30 °C,-0.13 ± 0.099
same,self-splicing fitness (ln),37 °C,-0.191 ± 0.11
CAGGAGCAAUAUUACGUCGU,self-splicing fitness (ln),37 °C,-1.97 ± 0.37
GCAGAGCAAUAUUACGCUUA,self-splicing fitness (ln),30 °C,-1.76 ± 0.3
same,self-splicing fitness (ln),37 °C,-1.99 ± 0.3
UGCAAGCAAUAUUACGCCCG,self-splicing fitness (ln),30 °C,-0.288 ± 0.18
same,self-splicing fitness (ln),37 °C,0.109 ± 0.2
ACCGAGCAAUAUUACGACAC,self-splicing fitness (ln),30 °C,-3.48 ± 0.38
same,self-splicing fitness (ln),37 °C,-1.73 ± 0.26
ACUUAGCAAUAUUACGCUCG,self-splicing fitness (ln),30 °C,-0.969 ± 0.1
same,self-splicing fitness (ln),37 °C,-0.233 ± 0.16
GAUUAGCAAUAUUACGCUCU,self-splicing fitness (ln),30 °C,-1.26 ± 0.41
same,self-splicing fitness (ln),37 °C,-0.272 ± 0.27
CACUAGCAAUAUUACGGUCA,self-splicing fitness (ln),30 °C,-0.522 ± 0.092
same,self-splicing fitness (ln),37 °C,-0.198 ± 0.12
UCGUAGCAAUAUUACGGGUA,self-splicing fitness (ln),30 °C,-1.57 ± 0.17
same,self-splicing fitness (ln),37 °C,-0.425 ± 0.16
CAGGAGCAAUAUUACGAUUU,self-splicing fitness (ln),30 °C,-3.81 ± 0.28
same,self-splicing fitness (ln),37 °C,-0.961 ± 0.13
UCGCAGCAAUAUUACGGGAG,self-splicing fitness (ln),30 °C,-3.59 ± 0.24
same,self-splicing fitness (ln),37 °C,-3.15 ± 0.23
UUGCAGCAAUAUUACGAUGA,self-splicing fitness (ln),30 °C,-0.402 ± 0.097
same,self-splicing fitness (ln),37 °C,0.367 ± 0.12
AAUUAGCAAUAUUACGCAAC,self-splicing fitness (ln),30 °C,-3 ± 0.4
same,self-splicing fitness (ln),37 °C,-1.93 ± 0.24
CAGUAGCAAUAUUACGAUAC,self-splicing fitness (ln),30 °C,-3.55 ± 0.36
same,self-splicing fitness (ln),37 °C,-2.51 ± 0.41
CUAUAGCAAUAUUACGCCCG,self-splicing fitness (ln),30 °C,-0.353 ± 0.24
same,self-splicing fitness (ln),37 °C,-0.0929 ± 0.34
CCCCAGCAAUAUUACGCCGA,self-splicing fitness (ln),37 °C,-2.04 ± 0.25
CGACAGCAAUAUUACGAAGU,self-splicing fitness (ln),30 °C,-4.32 ± 0.37
same,self-splicing fitness (ln),37 °C,-3.18 ± 0.43
AUCGAGCAAUAUUACGUCUC,self-splicing fitness (ln),30 °C,-3.13 ± 0.22
same,self-splicing fitness (ln),37 °C,-2.18 ± 0.33
UGCCAGCAAUAUUACGACUU,self-splicing fitness (ln),30 °C,-2.97 ± 0.14
same,self-splicing fitness (ln),37 °C,-1.46 ± 0.13
CGGUAGCAAUAUUACGCUUC,self-splicing fitness (ln),37 °C,-0.894 ± 0.24
CUUGAGCAAUAUUACGCCGG,self-splicing fitness (ln),30 °C,-4.04 ± 0.46
same,self-splicing fitness (ln),37 °C,-1.65 ± 0.47
CGUAAGCAAUAUUACGGCGG,self-splicing fitness (ln),30 °C,-0.217 ± 0.072
same,self-splicing fitness (ln),37 °C,-0.126 ± 0.096
GUUAAGCAAUAUUACGGCAC,self-splicing fitness (ln),30 °C,-0.637 ± 0.12
same,self-splicing fitness (ln),37 °C,0.0416 ± 0.15
UGGUAGCAAUAUUACGAUGG,self-splicing fitness (ln),30 °C,-2.44 ± 0.15
same,self-splicing fitness (ln),37 °C,-1.1 ± 0.17
UGUAAGCAAUAUUACGUACA,self-splicing fitness (ln),30 °C,-0.772 ± 0.098
same,self-splicing fitness (ln),37 °C,-0.557 ± 0.16
GGUCAGCAAUAUUACGUCAG,self-splicing fitness (ln),30 °C,-3.99 ± 0.4
same,self-splicing fitness (ln),37 °C,-3.23 ± 0.47
GGAGAGCAAUAUUACGGCUC,self-splicing fitness (ln),30 °C,-1.76 ± 0.2
same,self-splicing fitness (ln),37 °C,-2.82 ± 0.34
CCCAAGCAAUAUUACGUCCU,self-splicing fitness (ln),30 °C,-3.99 ± 0.3
same,self-splicing fitness (ln),37 °C,-2.93 ± 0.29
UCAAAGCAAUAUUACGUUUG,self-splicing fitness (ln),30 °C,-3.43 ± 0.16
same,self-splicing fitness (ln),37 °C,-1.82 ± 0.14
GGGUAGCAAUAUUACGAUAC,self-splicing fitness (ln),30 °C,-1.98 ± 0.22
same,self-splicing fitness (ln),37 °C,-0.628 ± 0.24
CUAGAGCAAUAUUACGUGCG,self-splicing fitness (ln),30 °C,-0.299 ± 0.083
same,self-splicing fitness (ln),37 °C,-0.255 ± 0.098
UCUGAGCAAUAUUACGUAUG,self-splicing fitness (ln),30 °C,-3.07 ± 0.18
same,self-splicing fitness (ln),37 °C,-2.07 ± 0.17
GUUGAGCAAUAUUACGUUCC,self-splicing fitness (ln),30 °C,-1.13 ± 0.26
same,self-splicing fitness (ln),37 °C,-1.31 ± 0.34
ACCAAGCAAUAUUACGGUAA,self-splicing fitness (ln),30 °C,-2.9 ± 0.14
same,self-splicing fitness (ln),37 °C,-2.02 ± 0.12
AUCAAGCAAUAUUACGUCGC,self-splicing fitness (ln),30 °C,-4 ± 0.2
same,self-splicing fitness (ln),37 °C,-2.65 ± 0.11
UGAGAGCAAUAUUACGAGUU,self-splicing fitness (ln),30 °C,-3.31 ± 0.23
same,self-splicing fitness (ln),37 °C,-2.3 ± 0.34
GACUAGCAAUAUUACGGAAU,self-splicing fitness (ln),30 °C,-2.12 ± 0.12
same,self-splicing fitness (ln),37 °C,-1.91 ± 0.14
